Assay results: the RNAGym collection of RNA variant scans (doi:10.1073/pnas.2313332121)
Variants at the floor of the assay were thinned out.

B1: TPR 5TU (parent)
chain: GGAUCUUCUCGAUCUAACAAAAAAGACAAAUCUGCCACAAAGCUUGAGAGCAUCUUCGGAUGCAGAGGCGGCAGCCUUCGGUGGCGCGAUAGCGCCAACGUUCUCAACUAUGACACGCAAAACGCGUGCUCCGUUGAAUGGAGUUUAUCAUG

Variants of: B1
Experiment: polymerase ribozyme fitness, log enrichment relative to wild type (log ratio); higher = more active; in vitro selection for triplet polymerase activity
In short: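 PCR was used to build mutant libraries for each subunit of a heterodimeric triplet polymerase ribozyme, which were then transcribed. A single in vitro selection round, in triplicate, used a frozen incubation at −7 °C and recovered extended constructs by gel excision, streptavidin beads and RT-PCR. Fitness is the logarithm of genotype enrichment relative to wild-type enrichment, averaged over replicates with inverse-variance weights. The logarithm is base 2, and after Illumina sequencing only genotypes with ≥10 input reads and ≥1 read per output were kept.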

Variant | polymerase ribozyme fitness (log ratio)
C5A U31C C36A G62C A66G C85G U104A | ≤ -4.2
U6C A21G C27A C54U G80C C87A U109C A147U | ≤ -4.2
C5A C85A | -1.31
C5G C43U A73U G92U U134A U144C | ≤ -4.2
C5A U55A G58C G68U G81A A91U C96A | ≤ -4.2
C5G A52C C85U | -2.14
C5A A24U A40C A52C | -0.908
C5U C85U U127C U145A | -2.5
C5G U31A A147C | -0.56
U6C A49U C63G | -2.48
U6A A12U U15C A137C | -3.12
C5G G80A | 0.101
U4A U6A A40U G46C C96A C118A | -3.94
U6A U9A G92C C114A C118U C123G | ≤ -4.2
U6A C18U A49C C79A A91G U101C C103A | ≤ -4.2
U6A A19G C99A | -2.14
C5G A17G U61A G67A C93A C95U G140U | ≤ -4.2
U4G C87A A98G U130G | ≤ -4.2
U6C A22U U31G C93A C114G | ≤ -4.2
C5G G11U A17U A39U C57G A73G C79U A138G G141C U144G | ≤ -4.2
U4C U55A G86U | -2.08

Variant | polymerase ribozyme fitness (log ratio)
C5A U6G A28U A52C G84C A110G | ≤ -4.2
C5A C57A C76U G81A G92C C132U | -2.21
C5A C36G A49C U61A G84A | ≤ -4.2
C5G U53G G92A C103A U111G A120U | ≤ -4.2
U4C C32G C103G | ≤ -4.2
C5U C69A | -2.55
U6A C108U U134C | -3.33
U4G C36A U55A U61A C76U C87U | ≤ -4.2
C5A G11C G50U G58C C85A | -2.8
C5A G59U C69U G94U A98G U102G U135C | ≤ -4.2
C5A G11U A21C C54U C57A C87U | -1.42
U6C A23U U31G G62A C95U C99G G100U C114U C129U | ≤ -4.2
C5A A24C G80C C149G | ≤ -4.2
C5A C10G C85A C118G | -3.84
U6C A26U C35A A73G C75U C93A C116A A138C | ≤ -4.2
U4C A19C C38G C93U C114G | ≤ -4.2
U4G A47C C51U G80A G84A G94U A97U | ≤ -4.2
C5U A17C C54A C85A C93U C105G A113G G141A | ≤ -4.2
U4G C85U U134G U145G | -2.85
U4C G50C G62A G84A G92C | ≤ -4.2
C5G A12U C27G A49C C54U U61A C93G C95A A119G U134A A150C | ≤ -4.2

Variant | polymerase ribozyme fitness (log ratio)
C5G C96G G141U | -0.469
U4A U61A G94A | -1.99
U6A C57U A98G | -0.654
C5G A24C A28C U55G G58A C63U C105G A137G U151G | ≤ -4.2
U6C C18G A23G C27U A30G C54U C63A G84A C103U | ≤ -4.2
C5A A64G A66G U134G | ≤ -4.2
U6A C118G | -1.66
C5A A21U U77A U82G C96G U104G C105A C118U U139C | ≤ -4.2
C5U U13G A22U U55A G65U G70U C87A C95U A98G A137C G141A G143C | ≤ -4.2
C5A C93A | -1.25
C5A A12G G84A G88A A97U C116A | -3.84
U6A A20C A49U A52C C79U C93A C118G | ≤ -4.2
U4C G58C | 0.358
C5G U7C U13A A16G C51U G92C A98G C114A | -4.13
C5A C14U C32A U33A A47U U82G G92U G126C U135G | ≤ -4.2
C5G G86U | -2.77
U4C G58A C103A G124A | -3.54
C5A A39U C85U U90G C118U C125U | ≤ -4.2
C5A C75U C87U | 0.223
U6A C125G | -0.431
C5A C54U | 0.00554

Variant | polymerase ribozyme fitness (log ratio)
C5A G34A | 0.15
U4G G141U | 0.552
C5G G50A G59C C76A G83A C103G C114A | ≤ -4.2
U4C C32A A37G G83U A122U U151A | ≤ -4.2
C5A A26U G50A C51U A106C U139G | ≤ -4.2
C5A A22U A24U C27G A39C C57U A60U C85G | ≤ -4.2
U6A A12U A20U A41U A89C A120U | -3.91
U4G A26G U33A C54G G86A G88U U90G | ≤ -4.2
C5G C18G A41C G152U | -3.98
C5A U53A C93U C125A G152A | -4.17
U6C G50C G59A G68U A137C | ≤ -4.2
C5A U33G C38U A49C G67C G92C | ≤ -4.2
U4G A23C A30U A52C U56A | ≤ -4.2
U4C C87A A89U C129G | ≤ -4.2
C5G G59A | -0.858
C5A C76U C93A | -1.5
U4A G94U U102C | -3.03
C5G C87U A98G | -1.31
C5A C54U C75G G80C U82A C87U C99G | ≤ -4.2
U6C C35G A66G C96U U109A G126U | ≤ -4.2
